Values belong to the binder of their own block, whether it stands above or below them. Numbered stars: 1 amine (or outer) side, 2 acyl side, 3 side chain; on linkers, the order of the positions; unused ones are H or OH. * marks the point of attachment. C20 diacid = O=C(O)CCCCCCCCCCCCCCCCCCC(=O)*; C18 diacid = O=C(O)CCCCCCCCCCCCCCCCC(=O)*; γGlu = O=C(O)[C@H](CCC(=O)[*:2])N[*:1]; AEEA = NCCOCCOCC(=O)O
Target: T1, human amylin receptor (human calcitonin receptor + human RAMP3) (human) (UniProt P30988)
T1 sequence (looked up) 1: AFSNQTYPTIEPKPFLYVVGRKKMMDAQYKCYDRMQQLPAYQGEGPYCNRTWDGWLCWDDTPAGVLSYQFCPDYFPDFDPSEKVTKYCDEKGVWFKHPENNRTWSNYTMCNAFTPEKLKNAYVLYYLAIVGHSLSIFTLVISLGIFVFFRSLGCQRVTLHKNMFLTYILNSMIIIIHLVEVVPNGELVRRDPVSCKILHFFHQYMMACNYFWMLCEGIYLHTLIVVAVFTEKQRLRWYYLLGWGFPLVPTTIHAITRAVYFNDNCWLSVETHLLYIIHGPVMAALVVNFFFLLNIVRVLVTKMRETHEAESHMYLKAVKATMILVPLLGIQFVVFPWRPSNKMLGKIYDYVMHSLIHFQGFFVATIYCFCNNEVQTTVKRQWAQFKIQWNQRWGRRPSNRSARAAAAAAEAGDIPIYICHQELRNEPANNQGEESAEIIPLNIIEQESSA
T1 sequence (looked up) 2: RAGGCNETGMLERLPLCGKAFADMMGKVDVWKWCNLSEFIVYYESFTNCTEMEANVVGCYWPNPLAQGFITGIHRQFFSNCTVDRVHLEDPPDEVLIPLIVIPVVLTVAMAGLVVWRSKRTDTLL
Experiment: whole-cell competition vs 125I-rat amylin (Assay Va)

IC50: 3.05 nM
B4: [N-terminal(C20 diacid-gGlu), des1, 30S, 31G, 33L]mimylin (peptide)
peptide: {C20 diacid-γGlu}-ASELSTAALGRLSAELHELATLPRTETGSGSL-NH2
SMILES: CC(C)C[C@H](NC(=O)[C@H](CO)NC(=O)CNC(=O)[C@H](CO)NC(=O)CNC(=O)[C@@H](NC(=O)[C@H](CCC(=O)O)NC(=O)[C@@H](NC(=O)[C@H](CCCNC(=N)N)NC(=O)[C@@H]1CCCN1C(=O)[C@H](CC(C)C)NC(=O)[C@@H](NC(=O)[C@H](C)NC(=O)[C@H](CC(C)C)NC(=O)[C@H](CCC(=O)O)NC(=O)[C@H](Cc1c[nH]cn1)NC(=O)[C@H](CC(C)C)NC(=O)[C@H](CCC(=O)O)NC(=O)[C@H](C)NC(=O)[C@H](CO)NC(=O)[C@H](CC(C)C)NC(=O)[C@H](CCCNC(=N)N)NC(=O)CNC(=O)[C@H](CC(C)C)NC(=O)[C@H](C)NC(=O)[C@H](C)NC(=O)[C@@H](NC(=O)[C@H](CO)NC(=O)[C@H](CC(C)C)NC(=O)[C@H](CCC(=O)O)NC(=O)[C@H](CO)NC(=O)[C@H](C)NC(=O)CC[C@H](NC(=O)CCCCCCCCCCCCCCCCCCC(=O)O)C(=O)O)[C@@H](C)O)[C@@H](C)O)[C@@H](C)O)[C@@H](C)O)C(N)=O

IC50: 1.36 nM
B5: [N-terminal(C20 diacid-gGlu), des1, 30S, 31G, 33F]mimylin (peptide)
peptide: {C20 diacid-γGlu}-ASELSTAALGRLSAELHELATLPRTETGSGSF-NH2
SMILES: CC(C)C[C@H](NC(=O)[C@H](C)NC(=O)[C@H](C)NC(=O)[C@@H](NC(=O)[C@H](CO)NC(=O)[C@H](CC(C)C)NC(=O)[C@H](CCC(=O)O)NC(=O)[C@H](CO)NC(=O)[C@H](C)NC(=O)CC[C@H](NC(=O)CCCCCCCCCCCCCCCCCCC(=O)O)C(=O)O)[C@@H](C)O)C(=O)NCC(=O)N[C@@H](CCCNC(=N)N)C(=O)N[C@@H](CC(C)C)C(=O)N[C@@H](CO)C(=O)N[C@@H](C)C(=O)N[C@@H](CCC(=O)O)C(=O)N[C@@H](CC(C)C)C(=O)N[C@@H](Cc1c[nH]cn1)C(=O)N[C@@H](CCC(=O)O)C(=O)N[C@@H](CC(C)C)C(=O)N[C@@H](C)C(=O)N[C@H](C(=O)N[C@@H](CC(C)C)C(=O)N1CCC[C@H]1C(=O)N[C@@H](CCCNC(=N)N)C(=O)N[C@H](C(=O)N[C@@H](CCC(=O)O)C(=O)N[C@H](C(=O)NCC(=O)N[C@@H](CO)C(=O)NCC(=O)N[C@@H](CO)C(=O)N[C@@H](Cc1ccccc1)C(N)=O)[C@@H](C)O)[C@@H](C)O)[C@@H](C)O

IC50: 0.432 nM
Binder: {C20 diacid-γGlu-AEEA-AEEA-AEEA}-ASELSTAALGRLSAELHELATLPRTETGSGSP-NH2 [[N-terminal(C20 diacid-gGlu-3xOEG), des1, 30S, 31G]mimylin]

Further lines, the binder ahead of its results:

B1: [N-terminal(C18 diacid), 9V, 25P]mimylin (peptide)
peptide: {C18 diacid}-EASELSTAVLGRLSAELHELATLPPTETGPESP-NH2
SMILES: CC(C)C[C@H](NC(=O)[C@H](CCC(=O)O)NC(=O)[C@H](Cc1c[nH]cn1)NC(=O)[C@H](CC(C)C)NC(=O)[C@H](CCC(=O)O)NC(=O)[C@H](C)NC(=O)[C@H](CO)NC(=O)[C@H](CC(C)C)NC(=O)[C@H](CCCNC(=N)N)NC(=O)CNC(=O)[C@H](CC(C)C)NC(=O)[C@@H](NC(=O)[C@H](C)NC(=O)[C@@H](NC(=O)[C@H](CO)NC(=O)[C@H](CC(C)C)NC(=O)[C@H](CCC(=O)O)NC(=O)[C@H](CO)NC(=O)[C@H](C)NC(=O)[C@H](CCC(=O)O)NC(=O)CCCCCCCCCCCCCCCCC(=O)O)[C@@H](C)O)C(C)C)C(=O)N[C@@H](C)C(=O)N[C@H](C(=O)N[C@@H](CC(C)C)C(=O)N1CCC[C@H]1C(=O)N1CCC[C@H]1C(=O)N[C@H](C(=O)N[C@@H](CCC(=O)O)C(=O)N[C@H](C(=O)NCC(=O)N1CCC[C@H]1C(=O)N[C@@H](CCC(=O)O)C(=O)N[C@@H](CO)C(=O)N1CCC[C@H]1C(N)=O)[C@@H](C)O)[C@@H](C)O)[C@@H](C)O
IC50: 0.383 nM

B2: [N-terminal(C18 diacid), 3P, 9V]mimylin (peptide)
peptide: {C18 diacid}-EAPELSTAVLGRLSAELHELATLPRTETGPESP-NH2
SMILES: CC(C)C[C@H](NC(=O)[C@H](CCC(=O)O)NC(=O)[C@H](Cc1c[nH]cn1)NC(=O)[C@H](CC(C)C)NC(=O)[C@H](CCC(=O)O)NC(=O)[C@H](C)NC(=O)[C@H](CO)NC(=O)[C@H](CC(C)C)NC(=O)[C@H](CCCNC(=N)N)NC(=O)CNC(=O)[C@H](CC(C)C)NC(=O)[C@@H](NC(=O)[C@H](C)NC(=O)[C@@H](NC(=O)[C@H](CO)NC(=O)[C@H](CC(C)C)NC(=O)[C@H](CCC(=O)O)NC(=O)[C@@H]1CCCN1C(=O)[C@H](C)NC(=O)[C@H](CCC(=O)O)NC(=O)CCCCCCCCCCCCCCCCC(=O)O)[C@@H](C)O)C(C)C)C(=O)N[C@@H](C)C(=O)N[C@H](C(=O)N[C@@H](CC(C)C)C(=O)N1CCC[C@H]1C(=O)N[C@@H](CCCNC(=N)N)C(=O)N[C@H](C(=O)N[C@@H](CCC(=O)O)C(=O)N[C@H](C(=O)NCC(=O)N1CCC[C@H]1C(=O)N[C@@H](CCC(=O)O)C(=O)N[C@@H](CO)C(=O)N1CCC[C@H]1C(N)=O)[C@@H](C)O)[C@@H](C)O)[C@@H](C)O
IC50: 0.352 nM

B3: [N-terminal(C20 diacid-gGlu), 23Y, 30S, 31G]mimylin (peptide)
peptide: {C20 diacid-γGlu}-EASELSTAALGRLSAELHELATYPRTETGSGSP-NH2
SMILES: CC(C)C[C@H](NC(=O)[C@H](C)NC(=O)[C@H](C)NC(=O)[C@@H](NC(=O)[C@H](CO)NC(=O)[C@H](CC(C)C)NC(=O)[C@H](CCC(=O)O)NC(=O)[C@H](CO)NC(=O)[C@H](C)NC(=O)[C@H](CCC(=O)O)NC(=O)CC[C@H](NC(=O)CCCCCCCCCCCCCCCCCCC(=O)O)C(=O)O)[C@@H](C)O)C(=O)NCC(=O)N[C@@H](CCCNC(=N)N)C(=O)N[C@@H](CC(C)C)C(=O)N[C@@H](CO)C(=O)N[C@@H](C)C(=O)N[C@@H](CCC(=O)O)C(=O)N[C@@H](CC(C)C)C(=O)N[C@@H](Cc1c[nH]cn1)C(=O)N[C@@H](CCC(=O)O)C(=O)N[C@@H](CC(C)C)C(=O)N[C@@H](C)C(=O)N[C@H](C(=O)N[C@@H](Cc1ccc(O)cc1)C(=O)N1CCC[C@H]1C(=O)N[C@@H](CCCNC(=N)N)C(=O)N[C@H](C(=O)N[C@@H](CCC(=O)O)C(=O)N[C@H](C(=O)NCC(=O)N[C@@H](CO)C(=O)NCC(=O)N[C@@H](CO)C(=O)N1CCC[C@H]1C(N)=O)[C@@H](C)O)[C@@H](C)O)[C@@H](C)O
IC50: 1.59 nM

B6: [N-terminal(C18 diacid), 9V, 18A]mimylin (peptide)
peptide: {C18 diacid}-EASELSTAVLGRLSAELAELATLPRTETGPESP-NH2
SMILES: CC(C)C[C@H](NC(=O)[C@H](CCC(=O)O)NC(=O)[C@H](C)NC(=O)[C@H](CO)NC(=O)[C@H](CC(C)C)NC(=O)[C@H](CCCNC(=N)N)NC(=O)CNC(=O)[C@H](CC(C)C)NC(=O)[C@@H](NC(=O)[C@H](C)NC(=O)[C@@H](NC(=O)[C@H](CO)NC(=O)[C@H](CC(C)C)NC(=O)[C@H](CCC(=O)O)NC(=O)[C@H](CO)NC(=O)[C@H](C)NC(=O)[C@H](CCC(=O)O)NC(=O)CCCCCCCCCCCCCCCCC(=O)O)[C@@H](C)O)C(C)C)C(=O)N[C@@H](C)C(=O)N[C@@H](CCC(=O)O)C(=O)N[C@@H](CC(C)C)C(=O)N[C@@H](C)C(=O)N[C@H](C(=O)N[C@@H](CC(C)C)C(=O)N1CCC[C@H]1C(=O)N[C@@H](CCCNC(=N)N)C(=O)N[C@H](C(=O)N[C@@H](CCC(=O)O)C(=O)N[C@H](C(=O)NCC(=O)N1CCC[C@H]1C(=O)N[C@@H](CCC(=O)O)C(=O)N[C@@H](CO)C(=O)N1CCC[C@H]1C(N)=O)[C@@H](C)O)[C@@H](C)O)[C@@H](C)O
IC50: 0.745 nM

B7: [N-terminal(C18 diacid), 4P, 9V]mimylin (peptide)
peptide: {C18 diacid}-EASPLSTAVLGRLSAELHELATLPRTETGPESP-NH2
SMILES: CC(C)C[C@H](NC(=O)[C@H](CCC(=O)O)NC(=O)[C@H](Cc1c[nH]cn1)NC(=O)[C@H](CC(C)C)NC(=O)[C@H](CCC(=O)O)NC(=O)[C@H](C)NC(=O)[C@H](CO)NC(=O)[C@H](CC(C)C)NC(=O)[C@H](CCCNC(=N)N)NC(=O)CNC(=O)[C@H](CC(C)C)NC(=O)[C@@H](NC(=O)[C@H](C)NC(=O)[C@@H](NC(=O)[C@H](CO)NC(=O)[C@H](CC(C)C)NC(=O)[C@@H]1CCCN1C(=O)[C@H](CO)NC(=O)[C@H](C)NC(=O)[C@H](CCC(=O)O)NC(=O)CCCCCCCCCCCCCCCCC(=O)O)[C@@H](C)O)C(C)C)C(=O)N[C@@H](C)C(=O)N[C@H](C(=O)N[C@@H](CC(C)C)C(=O)N1CCC[C@H]1C(=O)N[C@@H](CCCNC(=N)N)C(=O)N[C@H](C(=O)N[C@@H](CCC(=O)O)C(=O)N[C@H](C(=O)NCC(=O)N1CCC[C@H]1C(=O)N[C@@H](CCC(=O)O)C(=O)N[C@@H](CO)C(=O)N1CCC[C@H]1C(N)=O)[C@@H](C)O)[C@@H](C)O)[C@@H](C)O
IC50: 0.323 nM

B8: [N-terminal(C18 diacid), 9V, 28P]mimylin (peptide)
peptide: {C18 diacid}-EASELSTAVLGRLSAELHELATLPRTEPGPESP-NH2
SMILES: CC(C)C[C@H](NC(=O)[C@H](CCC(=O)O)NC(=O)[C@H](Cc1c[nH]cn1)NC(=O)[C@H](CC(C)C)NC(=O)[C@H](CCC(=O)O)NC(=O)[C@H](C)NC(=O)[C@H](CO)NC(=O)[C@H](CC(C)C)NC(=O)[C@H](CCCNC(=N)N)NC(=O)CNC(=O)[C@H](CC(C)C)NC(=O)[C@@H](NC(=O)[C@H](C)NC(=O)[C@@H](NC(=O)[C@H](CO)NC(=O)[C@H](CC(C)C)NC(=O)[C@H](CCC(=O)O)NC(=O)[C@H](CO)NC(=O)[C@H](C)NC(=O)[C@H](CCC(=O)O)NC(=O)CCCCCCCCCCCCCCCCC(=O)O)[C@@H](C)O)C(C)C)C(=O)N[C@@H](C)C(=O)N[C@H](C(=O)N[C@@H](CC(C)C)C(=O)N1CCC[C@H]1C(=O)N[C@@H](CCCNC(=N)N)C(=O)N[C@H](C(=O)N[C@@H](CCC(=O)O)C(=O)N1CCC[C@H]1C(=O)NCC(=O)N1CCC[C@H]1C(=O)N[C@@H](CCC(=O)O)C(=O)N[C@@H](CO)C(=O)N1CCC[C@H]1C(N)=O)[C@@H](C)O)[C@@H](C)O
IC50: 9 nM
